The values that follow come from doi:10.1101/2020.09.01.276469.

What all share (experiment): BLI
(In general: In BLI a coated tip is dipped into the sample, and binding shifts an interference pattern.)

Assay [1] addresses TPX2 C-terminus (a.a. 480-716) (Xenopus laevis) (UniProt Q6NUF4).
The target of assay [2] is TPX2 aa1-178Δ123 (TPX2 1-178 with the KKLK motif mutated) (Xenopus laevis) (UniProt Q6NUF4).
Assay [3] has as its target double-mutant TPX2 (DM-TPX2) (Xenopus laevis) (UniProt Q6NUF4).
For assay [4], the target named is triple-mutant TPX2 (TM-TPX2) (Xenopus laevis) (UniProt Q6NUF4).

Sequence of importin-αΔIBB (importin-α without the importin-β binding domain) (domain or fragment) (P52170 71-522, stated change not applied): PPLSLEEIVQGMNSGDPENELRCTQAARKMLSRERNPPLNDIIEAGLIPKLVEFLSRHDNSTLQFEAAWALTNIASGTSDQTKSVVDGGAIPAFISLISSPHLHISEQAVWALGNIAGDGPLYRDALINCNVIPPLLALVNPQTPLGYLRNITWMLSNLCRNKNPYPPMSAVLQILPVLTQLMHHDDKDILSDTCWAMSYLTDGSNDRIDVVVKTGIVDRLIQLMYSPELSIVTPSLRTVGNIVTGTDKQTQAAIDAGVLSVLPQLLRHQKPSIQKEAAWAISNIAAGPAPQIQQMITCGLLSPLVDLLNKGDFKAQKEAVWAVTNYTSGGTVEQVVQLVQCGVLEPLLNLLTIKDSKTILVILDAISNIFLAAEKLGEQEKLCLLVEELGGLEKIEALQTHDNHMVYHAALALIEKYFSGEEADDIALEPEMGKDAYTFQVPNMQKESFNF
Sequence of importin-β (P52297 whole entry): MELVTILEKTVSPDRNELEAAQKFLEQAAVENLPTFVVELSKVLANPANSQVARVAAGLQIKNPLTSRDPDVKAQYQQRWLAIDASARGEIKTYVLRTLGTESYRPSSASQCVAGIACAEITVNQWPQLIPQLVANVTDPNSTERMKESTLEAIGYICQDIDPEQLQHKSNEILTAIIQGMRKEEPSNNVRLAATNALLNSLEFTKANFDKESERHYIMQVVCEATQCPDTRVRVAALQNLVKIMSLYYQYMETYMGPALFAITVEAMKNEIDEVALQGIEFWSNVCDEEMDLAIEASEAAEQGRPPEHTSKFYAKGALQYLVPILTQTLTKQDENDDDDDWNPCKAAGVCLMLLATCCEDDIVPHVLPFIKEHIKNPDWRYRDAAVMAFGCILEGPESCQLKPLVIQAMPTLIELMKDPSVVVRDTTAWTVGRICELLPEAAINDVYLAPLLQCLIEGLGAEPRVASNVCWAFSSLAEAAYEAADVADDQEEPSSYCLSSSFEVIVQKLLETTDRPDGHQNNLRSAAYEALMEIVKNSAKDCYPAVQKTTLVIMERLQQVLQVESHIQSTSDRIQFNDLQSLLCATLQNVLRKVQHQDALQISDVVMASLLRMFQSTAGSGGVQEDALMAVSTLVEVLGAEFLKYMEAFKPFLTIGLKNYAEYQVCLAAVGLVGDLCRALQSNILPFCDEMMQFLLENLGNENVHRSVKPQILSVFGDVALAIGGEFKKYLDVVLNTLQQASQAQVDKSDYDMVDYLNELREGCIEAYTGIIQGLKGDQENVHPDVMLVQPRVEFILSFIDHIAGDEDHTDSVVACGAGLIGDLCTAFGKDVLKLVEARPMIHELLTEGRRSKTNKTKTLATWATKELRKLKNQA
Sequence of TPX2 C-terminus (a.a. 480-716) (Xenopus laevis) (Q6NUF4 480-716): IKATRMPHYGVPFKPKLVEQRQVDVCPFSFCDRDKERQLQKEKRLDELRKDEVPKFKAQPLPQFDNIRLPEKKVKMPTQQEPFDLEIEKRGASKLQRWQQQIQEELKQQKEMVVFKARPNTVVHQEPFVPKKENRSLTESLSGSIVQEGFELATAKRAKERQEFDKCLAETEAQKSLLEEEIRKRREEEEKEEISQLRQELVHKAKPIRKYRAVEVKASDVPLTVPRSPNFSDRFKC

In assay [1], “importin-β (from UniProt P52297 1-876) (natural protein)” had a Kd above 4 µM.
“importin-αΔIBB (importin-α without the importin-β binding domain) (domain or fragment)” showed a fold loss of binding against the wild type 1-178 TPX2 construct in assay [2] of 10 fold. Further, the Kd in assay [3] is 45 nM; in assay [4], 410 nM.

By Kd is commonly meant the constant that tells how readily two partners part at equilibrium.
